Assay results published in US20090004675A1, “Method of Identifying Compounds for Bacterial Growth Modulation” (priority 2004, published 2009).

Experiments:
E. coli β clamp = E. coli β clamp (Escherichia coli, UniProt P0A988); conditions: E. coli β labeled with Oregon Green or rhodamine-labeled peptide; Kd only in FIG. 1A
Description: The assays corresponding to the data in the Table of FIG. 1A, use E. coli β labeled with an Oregon Green fluorophore. Peptides of various polymerases were titrated into the labeled β, and the Kd values were obtained from the resulting fluorescent intensity changes. All other plots utilize rhodamine-labeled polymerase peptide from E. coli α (FIG. 1A), S. pyogenes Pol C (FIG. 1B), S. aureus Pol C (FIG. 1C). β clamp from the organisms indicated are titrated into the fluorescent peptide.
A rhodamine-labeled 20 mer peptide corresponds to the sequence of the C-terminal 20 residues of E. coli Pol III α subunit. […] A plot of the fluorescence change with beta concentration provides a Kd value for the interaction between these molecules (FIG. 1A).

S. pyogenes β = assay: Binding of rhodamine-labeled polymerase C-terminal peptides to β clamp; parameters: species or system Streptococcus pyogenes; conditions: β titrated in
Protocol: This assay has also been examined using Streptococcus pyogenes β and rhodamine labeled peptides corresponding to C-terminal residues of Streptococcus pyogenes Pol C and E. coli Pol III. […] The C-terminal peptide corresponding to Staphylococcus aureus Pol C was also tested for binding to these β clamps (FIG. 1C).

[1] = molecular target: E. coli DNA polymerase III replicase (Escherichia coli, UniProt P0A988); conditions: primed M13mp18 ssDNA coated with SSB
Protocol: Assays were performed using primed M13mp18 ssDNA coated with SSB as substrate. Each reaction was 25 μl and contained 72 ng primed M13mp18 ssDNA, 1 μg SSB, 0.1 mM MgCl2, 20 mM TrisHCl (pH 7.5), 0.1 mM EDTA, 5 mM DTT, 40 μg/ml BSA, 4% glycerol, […], 2 mM ATP, 60 μM each of dCTP, dATP, dGTP and 20 μM α^32-P dTTP. Replicases consisted of the following for each E. coli, S. pyogenes, and S. aureus: 50 ng Pol III core (E. coli) or Pol C (S. pyogenes and S. aureus), 200 ng τ, 20 ng δδ′ and 40 ng β. Peptides, when present, were added to the indicated concentration. Reactions were assembled on ice in the absence of the polymerase, then shifted to 37° C. for 3 min before initiating synthesis by addition of the polymerase. Reactions were incubated a further 3 min prior to quenching and quantitation of synthesis.

[2] = tested on: S. pyogenes PolC holoenzyme; assay: Replicase DNA synthesis assay on primed M13mp18 ssDNA, with peptides; format: biochemical, Streptococcus pyogenes; conditions: primed M13mp18 ssDNA coated with SSB
Protocol: (§1) Peptides, when present, were added to the indicated concentration.

[3] = molecular target: T1, S. aureus Pol C holoenzyme (Staphylococcus aureus, UniProt P0A024); assay: as above; format: biochemical; conditions: primed M13mp18 ssDNA coated with SSB
T1 construct: made in house
T1 sequence (P0A024 1-377): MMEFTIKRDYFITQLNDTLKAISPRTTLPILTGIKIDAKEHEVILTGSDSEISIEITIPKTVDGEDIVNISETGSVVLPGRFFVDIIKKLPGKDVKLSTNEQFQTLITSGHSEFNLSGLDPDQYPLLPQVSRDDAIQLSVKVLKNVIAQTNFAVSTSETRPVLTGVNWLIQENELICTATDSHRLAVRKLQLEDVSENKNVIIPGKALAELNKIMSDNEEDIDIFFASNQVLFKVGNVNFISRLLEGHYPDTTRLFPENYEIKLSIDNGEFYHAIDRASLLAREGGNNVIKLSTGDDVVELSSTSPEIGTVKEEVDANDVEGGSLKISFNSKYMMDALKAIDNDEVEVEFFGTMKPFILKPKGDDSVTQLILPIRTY
Protocol: as §1

Chain of E. coli β clamp (P0A988 whole entry): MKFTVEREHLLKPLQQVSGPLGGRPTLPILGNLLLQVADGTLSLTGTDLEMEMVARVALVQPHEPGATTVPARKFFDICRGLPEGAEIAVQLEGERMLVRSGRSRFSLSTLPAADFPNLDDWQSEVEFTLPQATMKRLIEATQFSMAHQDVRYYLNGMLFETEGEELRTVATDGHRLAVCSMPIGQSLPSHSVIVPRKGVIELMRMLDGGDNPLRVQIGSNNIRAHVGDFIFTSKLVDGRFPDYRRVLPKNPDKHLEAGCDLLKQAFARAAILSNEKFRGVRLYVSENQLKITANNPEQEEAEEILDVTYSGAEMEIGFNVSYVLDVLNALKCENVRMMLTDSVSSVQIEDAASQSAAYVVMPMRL
Chain of E. coli DNA polymerase III replicase (P0A988 whole entry): as above

| Substance | binding of peptide to E. coli β clamp (E. coli β clamp) | binding of peptide to S. pyogenes β (S. pyogenes β) | inhibition of DNA synthesis by E. coli DNA polymerase III replicase [1] | inhibition of DNA synthesis by S. pyogenes PolC holoenzyme [2] | inhibition of DNA synthesis by S. aureus Pol C holoenzyme [3] |
| --- | --- | --- | --- | --- | --- |
| S. aureus Pol C peptide: C-terminal peptide of Staphylococcus aureus Pol C; DELGSLPNLPDKAQLSIFDM (SEQ ID NO: 13) (listed as Staphylococcus aureus) | binds | bound | inhibit DNA synthesis | inhibit DNA synthesis | inhibit DNA synthesis |
| S. pyogenes Pol C peptide: C-terminal residues of Streptococcus pyogenes Pol C; DEMGILGNMPEDNQLSLFDDFF (SEQ ID NO: 15) (Streptococcus pyogenes) | binds | bound | inhibit DNA synthesis | inhibit DNA synthesis | inhibit DNA synthesis |
